Source: patent publication US20220127372A1

B1: GPC3-SL-mCD3ε (protein)
chain: EVQLVQSGAEVKKPGASVKVSCKASGYTFSDYEMHWVRQAPGQGLEWMGAIHPGSGDTAYNQRFKGRVTITADKSTSTAYMELSSLRSEDTAVYYCARFYSYAYWGQGTLVTVSAGGGGSGGGGSGGGGSDIVMTQTPLSLPVTPGEPASISCRSSQSLVHSNGNTYLQWYLQKPGQSPQLLIYKVSNRFSGVPDRFSGSGSGTDFTLKISRVEAEDVGVYYCSQSIYVPYTFGQGTKLEIKRAAAGGGGSGGGGSGGGGSLEDDAENIEYKVSISGTSVELTCPLDSDENLKWEKNGQELPQKHDKHLVLQDFSEVEDSGYYVCYTPASNKNTYLYLKARVCEYCVEVDLTAVAIIIIVDICITLGLLMVIYYWSKNRKAKAKPVTRGTGAGSRPRGQNKERPPPVPNPDYEPIRKGQRDLYSGLNQRAV
B2: GPC3-SL-mCD3ε-F2A-mRunx3 (protein)
chain: B1 chain
B3: GPC3-SL-mCD3ε-NFAT-mIL12 (protein)
chain: B1 chain
B4: GPC3-SL-mCD3ε-F2A-mCCL21b (protein)
chain: B1 chain
B5: GPC3-SL-mCD3ε-F2A-mIL7-P2A-mCCL21b (protein)
chain: B1 chain

Biological target: mouse GPC3 protein (mouse) (UniProt Q8CFZ4)
Assay: cell-based or functional assay

Sequence of UniProt Q8CFZ4 (Q8CFZ4 25-579 limits assumed): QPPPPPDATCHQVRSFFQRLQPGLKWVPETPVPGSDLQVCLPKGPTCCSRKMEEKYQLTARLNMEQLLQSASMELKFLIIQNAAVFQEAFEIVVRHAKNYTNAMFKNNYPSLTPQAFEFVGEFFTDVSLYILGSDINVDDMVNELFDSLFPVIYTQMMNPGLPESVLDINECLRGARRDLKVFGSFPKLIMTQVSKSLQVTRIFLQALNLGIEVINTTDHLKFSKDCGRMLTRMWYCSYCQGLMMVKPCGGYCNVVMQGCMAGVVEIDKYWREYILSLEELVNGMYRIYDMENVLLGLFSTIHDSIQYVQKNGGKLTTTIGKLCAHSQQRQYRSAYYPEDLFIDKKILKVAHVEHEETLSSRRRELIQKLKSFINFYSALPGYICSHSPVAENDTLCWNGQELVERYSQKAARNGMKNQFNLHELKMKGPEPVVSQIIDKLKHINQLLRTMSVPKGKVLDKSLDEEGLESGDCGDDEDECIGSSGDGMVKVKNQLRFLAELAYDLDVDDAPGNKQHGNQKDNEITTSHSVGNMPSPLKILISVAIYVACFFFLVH

| Binder | cytotoxicity to Hepa 1-6 GPC3 cells, effector target ratio 1:1, 18 h (CytoTox 96) [%] |
| --- | --- |
| B1 | 70.7 |
| B2 | 82.2 |
| B3 | 91.5 |
| B4 | 73.2 |
| B5 | 73.4 |
